Measured values published in the DeepSol protein solubility set.

Assay: soluble on expression in E. coli; label from the status in PepcDB or PDB records

Row | Sequence | soluble on expression in E. coli
1 | GMTILSDVKALGQQIWLDNLSRSLVQSGELAQMLKQGVCGVTSNPAIFQKAFAGDALYADEVAALKRQNLSPKQRYETMAVADVRAACDVCLAEHESTGGKTGFVSLEVSPELAKDAQGTVEEARRLHAAIARKNAMIKVPATDAGIDALETLVSDGISVNLTLLFSRAQTLKAYAAYARGIAKRLAAGQSVAHIQVVASFFISRVDSALDATLPDRLKGKTAIALAKAAYQDWEQYFTAPEFAALEAQGANRVQLLWASTGVKNPAYPDTLYVDSLIGVHTVNTVPDATLKAFIDHGTAKATLTESADEARARLAEIAALGIDVETLAARLQEDGLKQFEEAFEKLLAPLV | soluble
2 | MNLTDYVKEVSRQDFGIEFQHTASWNSRLQTTGGRFFPEDGHLDFNPKFCKKGDAGTFRKIVRHELCHYHLYYAGKGYRHGDKDFKDLLLQVNGVRYAPSIQSNTFYHYYQCESCGQVYQRKRRMNTKKYACGNCHGKLRHQNQSLEHHHHHH | not soluble
3 | MQVTSAEYLSNEESIKKGGNILMEKYNEKYNESIDGNKTLYKSYYESRRESIKNYNPDAKYINEIESIYMMLGEIYPNAPDFMSPHFEGDCSEGE | not soluble
4 | MGSDKIHHHHHHMSLHSDILVVGAGPAGLSFAAELAGSGLKVTLIERSPLTVLQNPPYDGREIALTHFSREIMQRLGMWDKIPENEIYPLRDAKVLNGRSDYQLHFPQPTEARGEPADCLGYLISNHNIRRAAYEVVSQLDNVSILTDTAVKEVKTSDNEAQVFLENGDILTARLLLAADSRFSQTRRQLGISSDMHDYSRTMFVCRMKHTLSNQHTAYECFHYGRTIALLPLEKRLTNTVITVDTDKINSVQNLSPEELAASVKEQLKGRLGDMELVSSIHHYPLVGMIAKRFYGKRSALIGDAAVGMHPVTAHGFNLGLSSADILAKLILEAEQRGQDIGAASLLEKYSSKHMLHAHPLYHGTNMMLKLFTNETAPAKLLRGLVLRAGNNFPPLKKLITKQLTG | not soluble
5 | GMLKILATQFNGKLQTLTKQEDELFDVVRLLAQALVGQGKVYLDAYGEFEGLYPMLSDGPDQMKRVTKIKDHKTLHAVDRVLIFTPDTERSDLLASLARYDAWHTPYSIITLGDVTETLERSIAPLALKFDKGLLPAEDGSRHGLPSLALGAFLLTHILTQLQEMTEEWE | soluble
6 | MGSDKIHHHHHHMKEDSSLTPQEVADLLKITKYTVYEMVKRGELPAYRIGRKIRIEQRDVDAYIKQGKKLKYKDIDTLEASPRTQAARQDYLSTSPGLVICGQDLLLDILGRHLENHSQGCRAFRHNIGSFAGLLQLYQGESDMAGVHLWDSDSESYNIPYVRRMVPGIPTLIIHLAMRQQGFYVARSNPLGIKGWADLTIPGLRFINREPGCGTRVLLDEHLYQMKLDRRKINGYEREETSHLAVASAVARGTADLALGNEKAALQVRGIEFIPLQKERYELVIRKEDLDKAEIRAVLDILNSAAFKSELEGLGDYCLEETGRIVAEI | not soluble
7 | KAGSAAAPFTKPFAVYKNVKFYLGDISHLVNCVSFDFVVNAANENLLHGGGVARAIDILTEGQLQSLSKDYISSNGPLKVGAGVMLECEKFNVFNVVGPRTGKHEHSLLVEAYNSILFENGIPLMPLLSCGIFGVRIENSLKALFSCDINKPLQVFVYSSNEEQAVLKFLDGLD | soluble
8 | MEWAAKKTNSLTSSSERTWKANLLVPVEDPRELMGTFDFLRDITYPKGSVKLLGLAGNTDKENLLSQLPSISEGFQEEGVFSSWTIIDTAEFEENLVVGMEALTGSFFRPSILFLRLPENRDRDEEIREIIRKASMYRMGVLLFSKHPQAGLGRQNLINLWIENRGLDWDISMELGNMDLALLIAYKLKSNWKASLSFMTFAPTAIQAQAAENFLQSLAELARIPNVKMQVLRENPIKSSKLPFASLHIFSLDPNPDLDLARHLMEKAGSSCIFALDSGEENALALLEHHHHHH | soluble
9 | RHMELSPDGNLKTTITIGDRLTYDITCNGRQILTPSPISMTLDNGTVWGENAKLSGTSRKSVDEMIPSPFYRASELRNHYNGLTLRFKKDWNVEFRAYNDGIAYRFVNQGKKPFRVVTEVSDYCFPSDMTASVPYVKSGKDGDYNSQFFNSFENTYTTDKLSKLNKQRLMFLPLVVDAGDGVKVCITESDLENYPGLYLSASEGANRLSSMHAPYPKRTVQGGHNQLQMLVKEHEDYIAKVDKPRNFPWRIAVVTTTDKDLAATNLSYLLGAPSRMSDLSWIKPGKVAWDWWNDWNLDGVDFVTGVNNPTYKAYIDFASANGIEYVILDEGWAVNLQADLMQVVKEIDLKELVDYAASKNVGIILWAGYHAFERDMENVCRHYAEMGVKGFKVDFMDRDDQEMTAFNYRAAEMCAKYKLILDLHGTHKPAGLNRTYPNVLNFEGVNGLEQMKWSSPSVDQVKYDVMIPFIRQVSGPMDYTQGAMRNASKGNYYPCYSEPMSQGTRCRQLALYVVFESPFNMLCDTPSNYMREPESTAFIAEIPTVWDESIVLDGKMGEYIVTARRKGDVWYVGGITDWSARDIEVDCSFLGDKSYHATLFKDGVNAHRAGRDYKCESFPIKKDGKLKVHLAPGGGFALKIK | soluble
10 | SYSVGQVAGFAGVTVRTLHHYDDIGLLVPSERSHAGHRRYSDADLDRLQQILFYRELGFPLDEVAALLDDPAADPRAHLRRQHELLSARIGKLQKMAAAVEQAMEARS | soluble
11 | SLLIVYNEYLIHIYHSFQWAELQCETDSCIKMLLVADPQILGNTFDTKLYWPLANFDSDRHLKRTYKSVVQHAAPDVICFLGDLMDEGSVANDDQFAAYFTRFVNIFSQPTANTIMFYIPGDNDIGGEGLETIKSDRVLRFKQYFNEQDELTIDPMLRILNVNRISMTLPMNSAPSTEEPQPYTVLLSHMPILRWSDPFTYKVIDDFQPNVIFSAHEHKSRHVKTHRNQLTQGAPFEPLNTERSNRHEVVEFDLNYLKDTRELLEFIVPTCSYRMGEMKIGYGYAMFDGDKLRYTVLWTSQRFYQ | soluble
12 | MGIKTQKNFICLKRTFSMNLRDAISVANPVQLEEEIKHDEVVSFLKSKNLLDKPVILNVEGKKVAKNFVSSRETLGKYLGVDAYSIARELSKIEDREAEIRVEPFSSLAMKKVDVNLQELPVIKYFPRDGGRYITAGIVIAQRNGVYNASIHRMLLLDESRVAARLVPPRHTYLMWREAVEREEELEVAVVIGTHPLFLFASATRVPSGKEFSYAAGLMGRLTLYRKGEMLVPDSEIILFGRITAETAKEGPFVDITGTYDIVRDEPVIVFDEMYVKEDYIYYSITPAGKEHQMLMGVPYEPVIYRFVSNVCKVKNVITTPGSCHYFHCVVQIEKKSEGDGKNAIIAALAANPSMKGVVVVDDDIDILSYEDMEFAIATRFQPDRDLVVVKGARGSSLDPSADKTTSKWGIDATKPLGKEGFDRVVLEHHHHHH | not soluble
13 | MGSDKIHHHHHHMFLGEDYLLTNRAAVRLFNEVKDLPIVDPHNHLDAKDIVENKPWNDIWEVEGATDHYVWELMRRCGVSEEYITGSRSNKEKWLALAKVFPRFVGNPTYEWIHLDLWRRFNIKKVISEETAEEIWEETKKKLPEMTPQKLLRDMKVEILCTTDDPVSTLEHHRKAKEAVEGVTILPTWRPDRAMNVDKEGWREYVEKMGERYGEDTSTLDGFLNALWKSHEHFKEHGCVASDHALLEPSVYYVDENRARAVHEKAFSGEKLTQDEINDYKAFMMVQFGKMNQETNWVTQLHIGALRDYRDSLFKTLGPDSGGDISTNFLRIAEGLRYFLNEFDGKLKIVLYVLDPTHLPTISTIARAFPNVYVGAPWWFNDSPFGMEMHLKYLASVDLLYNLAGMVTDSRKLLSFGSRTEMFRRVLSNVVGEMVEKGQIPIKEARELVKHVSYDGPKALFFG | soluble
14 | MAHHHHHHMKRVANAKHATYDMPPKGLRVRDMLEKTAQQNCNQRKRGKCRKFFFLWKMDKMGDTHLGGQANGRKNLLRSESATDEASLGGNPLKEKLKESPANWGKDKQEEQQSTDRLPLPKVGNKMPEKKPDWFHVPAPTGKKYNELKADLKKLKLHTVCEEAQCPNIGECWNIGTATIMLLGDTCTRGCKFCSIKTSSKPLPPDANEPFNTAKAICEWDINYVVLTSVDRDDLPDGGASHFAKTIELIKFSRPEILIECLVSDFQGNVDSIRKLANSGMEVYAHNIETVRRLQKFVRDRRANYEQSLWVLKTAKEINPLLYTKTSIMLGLGETKQEVLQAMADVRQNNIDVITFGQYLRPTKNHLNVVEYVSPQMFDYYKEEGMKMGFKYIASGPLVRSSYKAGEYFMKNLVEQRRGVKLHAEG | not soluble
15 | MGSDKIHHHHHHMKEPTIVKKEAFQAIGISITTTNEKEASTEGKIPGLWNRYFHEQIMHHIPNQQTKETFAFYSNYESDETGTYQFTIGMPVSSLEDVPENMTTLTIPAATYAVFTTRKGPVAEVVCEAWEYIWKWSKGNKRAFTIDFELYDEKATDPNNAQLDIYIALA | not soluble
16 | MGSDKIHHHHHHVTILSPKAVPAPAASDAYGFGDRLTADFPSQINVDVTEVCNLACVHCPHPQFKKSVHYAGRMLDPALNDKMVEEVRDHGQGRVGYIRYTAAGEPMAHPAIFPMLAKAVARSGTTVSLTTNGMLLDEGRRARLLETGIHLIDISIDAFLPETYARVRVGGDLERVRGGVLRLMEGAARRVDPPKIVVSFVEQPFNQGETADFERFWKENGAAYVVIRRLHSCAGAAQDLAATLRVEQGETRRPCLYPWERIVLNPSGQLSFCPADWAHGAAIAEYRDTTIREVWQGPFYRALREAHLTNSYANHGFCGQCPDWASTRWPKQGRSYADMVQDFKETE | not soluble
17 | MPSGLFMDLLPFLLDANLSATNPPAIPHWWKRQPLIPNLLSQELKNYLKLNVKEKNIQIADQVIIDETAGEVVIGANTRICHGAVIQGPVVIGANCLIGNWICPYISRHLLSLNPLQARCRRYSRGERLEHHHHHH | not soluble
18 | MPTSIQFQRSSTAAEAANATVRNYPHHHQKQVQKVSLTRGMADVPEHVELSHTHVVGPSQCFSVVVQDVEAPVSTVWSILSRFEHPQAYKHFVKSCHVVIGDGREVGSVREVRVVSGLPAAFSLERLEIMDDDRHVISFSVVGGDHRLMNYKSVTTVHESEEDSDGKKRTRVVESYVVDVPAGNDKEETCSFADTIVRCNLQSLAKLAENTSKFS | not soluble
19 | MSGELRVRRASSWELDLILKEAEKYGELLHEFFCVVEGKYRDVYAVNEEVWKIIEDINMRPYSLGTFVGTIRVDENLVEKFYPNLEFFSLIKLEKNYVILGPKASFLFTTGKDAPKEAVREIKWQGSKRVVVLNDLGDIIGIGLINPKSDRRFIKNLKDVGEFLRR | soluble
20 | MERQQQQQQQLRNLRDFLLVYNRMTELCFQRCVPSLHHRALDAEEEACLHSCAGKLIHSNHRLMAAYVQLMPALVQRRIADYEAASAVPSVAAEQPGVSPSGS | soluble
21 | NWLTADGAAGPSGEGGFAAEKDRYHLYVSLACPWAHRTLIMRKLKGLEPFLPVSVVNPLMLENGWTFDDSFPEATGDTLYQHDFLYQLYLHADPHYTGRVTVPVLWDKKQQTIVSNESAEIIRMFNTAFDGLGARAGDYYPPALREQIDELNGWIYDNVNN | not soluble
22 | MKCGLEIHVQLDTRSKLFCRCPTDYQEAPPNTNICPVCLNQPGAKPYPPNRSALEGALKIALMLDCRINPEITYFMRKHYNYPDLPSGYQRTSIPVGLEGELNGVRIREVHIEEDPGQYKPDQGTVDFNRSGIPLIEIVTEPDMTSPEEARNFLRELIRVLEYSGCARGEGTMRADVNISLEGGKRVEIKNINSIKGAYKALKFEMIRQKNLLKRGVEVKQETRAFLESQMITVSMRLKEEAEDYRYIPDPDLPPMKFTDEVVEGLRERIPEAPHLKVKRFMEEYGLREEDARVLTSELELADAFEEVAGSIDPEFAALWMRDELKRVLYYNKISFAESMITPGDIIELLAMIRKKEITSKAAKKIIEEMPLNKKGPREIATEMGLIGIIDESEVIRAVEQAIRENPGAVEDYHAGKEAAINFLVGQVMRMTRGKAEPERTVELIKERI | soluble
